Experimental findings from publication PMC11074293 (Nature Communications, 2024) are described below.

Series [1] deals with the molecule itself. The experiment in a line: cryo-EM structure; full-length CUL3-RBX1-KLHL22 co-expressed in SF9, purified, GraFix (glutaraldehyde gradient); C2 symmetry, 3.8 Å overall, 3.3 Å for the dimer assembly region.
Series [2] concerns the molecule itself. The experiment in a line: SEC-MALS; WTC-015S5 column, low salt buffer; complexes at 2 mg/ml, KLHL22^1–178 and KLHL12^1–161 alone at 3 mg/ml.
Series [3] addresses T1, CUL3^Δ1–13-RBX1 (human, UniProt Q13618 14-768; P62877 1-108).
T1 construct: Cullin-3 (CUL3), human, residues 1-13 deleted (partial deletion of the NA motif); RBX1, human, without a tag; source: purified; host stated only for wild-type CUL3-RBX1 (SF9); copies: 1 + 1
The experiment in a line: SEC; analytical SEC, Superdex 200 Increase 10/300 GL, 20 mM Tris-HCl pH 8.0, 150 mM NaCl, 1% glycerol, 1 mM TCEP; purified proteins mixed 1:1 (also 2:1 and 4:1 CUL3-RBX1 to BTB protein), 10 min on ice. Conditions: both partners purified. For orientation: Size exclusion chromatography separates by hydrodynamic size, large species first.

Series [4] has as its target T2, CUL3^Δ1–24-RBX1 (human, UniProt Q13618 25-768; P62877 1-108).
T2 construct: Cullin-3 (CUL3), human, residues 1-24 (the whole NA motif) deleted; RBX1, human, without a tag; source: purified; host stated only for wild-type CUL3-RBX1 (SF9); copies: 1 + 1
The series is described as above. Conditions: both partners purified.

The target in series [5] is T3, CUL3^WT-RBX1 (human, UniProt Q13618 1-768; P62877 1-108).
T3 construct: Cullin-3 (CUL3), human, full length; also called CUL3-RBX1; (CUL3-His6)-RBX1; source: SF9 insect cells, co-expressed from pFastbac-dual, purified (Ni-IDA, SEC); copies: 1 + 1
The description is as above. Conditions: both partners purified.

Series [6] concerns the target T1, CUL3^Δ1–13-RBX1. The experiment in a line: ITC; ITC200; CUL3-RBX1 (120 μM) in the syringe titrated into KLHL22^1–178 (10 μM) in the cell, 25 °C, one-site model; repeated with KLHL22^1–178 (120 μM) into CUL3-RBX1 (12 μM). Conditions: both partners purified. For orientation: ITC needs no label: the signal is the heat of the interaction.
Series [7] deals with T2, CUL3^Δ1–24-RBX1. The series is described as above. Particulars: both partners purified.
In series [8] the target is T3, CUL3^WT-RBX1. The description is as above. Conditions: both partners purified.

T3 sequence (Q13618 whole entry, chain 1 of 2): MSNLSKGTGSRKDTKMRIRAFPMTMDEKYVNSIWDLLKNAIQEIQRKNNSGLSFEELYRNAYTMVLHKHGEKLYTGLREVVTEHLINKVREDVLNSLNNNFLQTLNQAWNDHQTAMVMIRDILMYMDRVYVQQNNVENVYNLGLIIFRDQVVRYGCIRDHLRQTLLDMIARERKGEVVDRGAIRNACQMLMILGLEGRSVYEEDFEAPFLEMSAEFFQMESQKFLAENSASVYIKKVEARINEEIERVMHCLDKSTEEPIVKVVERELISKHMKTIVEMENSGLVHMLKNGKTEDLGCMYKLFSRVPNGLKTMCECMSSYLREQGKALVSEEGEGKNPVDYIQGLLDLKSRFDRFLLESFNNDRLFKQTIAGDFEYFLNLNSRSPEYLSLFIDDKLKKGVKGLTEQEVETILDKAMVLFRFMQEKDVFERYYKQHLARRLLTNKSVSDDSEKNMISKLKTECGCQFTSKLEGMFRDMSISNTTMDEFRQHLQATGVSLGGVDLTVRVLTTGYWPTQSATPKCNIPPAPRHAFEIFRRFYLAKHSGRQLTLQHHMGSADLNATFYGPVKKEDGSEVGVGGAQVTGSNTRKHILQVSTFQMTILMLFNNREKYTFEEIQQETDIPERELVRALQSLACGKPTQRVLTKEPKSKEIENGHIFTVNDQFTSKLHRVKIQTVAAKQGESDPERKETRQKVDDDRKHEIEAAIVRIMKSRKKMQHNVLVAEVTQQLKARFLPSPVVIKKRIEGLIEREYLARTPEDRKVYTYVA
T3 sequence (P62877 whole entry, chain 2 of 2): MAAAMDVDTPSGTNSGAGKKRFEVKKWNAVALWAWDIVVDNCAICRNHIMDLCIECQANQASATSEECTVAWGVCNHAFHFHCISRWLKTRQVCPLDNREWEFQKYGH
T1 sequence (Q13618 14-768, stated change not applied, chain 1 of 2): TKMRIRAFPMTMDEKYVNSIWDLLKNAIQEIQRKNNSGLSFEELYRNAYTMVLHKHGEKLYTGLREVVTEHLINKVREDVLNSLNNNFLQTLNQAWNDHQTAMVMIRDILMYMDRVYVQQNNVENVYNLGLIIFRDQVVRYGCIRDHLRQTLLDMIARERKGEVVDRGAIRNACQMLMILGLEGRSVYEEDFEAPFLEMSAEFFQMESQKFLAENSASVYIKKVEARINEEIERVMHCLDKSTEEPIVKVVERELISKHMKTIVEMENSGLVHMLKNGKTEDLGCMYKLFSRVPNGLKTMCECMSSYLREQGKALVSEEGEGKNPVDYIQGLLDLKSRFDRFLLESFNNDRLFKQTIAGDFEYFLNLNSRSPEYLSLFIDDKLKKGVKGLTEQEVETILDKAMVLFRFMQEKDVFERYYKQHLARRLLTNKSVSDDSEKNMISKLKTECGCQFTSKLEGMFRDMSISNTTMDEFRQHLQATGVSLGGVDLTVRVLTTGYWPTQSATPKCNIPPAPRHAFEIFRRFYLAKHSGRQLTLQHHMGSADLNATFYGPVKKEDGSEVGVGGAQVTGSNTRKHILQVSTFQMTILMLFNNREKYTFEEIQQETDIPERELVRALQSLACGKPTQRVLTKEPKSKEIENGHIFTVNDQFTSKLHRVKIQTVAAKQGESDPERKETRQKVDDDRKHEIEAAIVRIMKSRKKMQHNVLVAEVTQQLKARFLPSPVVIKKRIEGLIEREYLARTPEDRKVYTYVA
T1 sequence (P62877 whole entry, stated change not applied, chain 2 of 2, the tested form may be a part): as the sequence (P62877 whole entry, chain 2 of 2) above
T2 sequence (Q13618 25-768, stated change not applied, chain 1 of 2): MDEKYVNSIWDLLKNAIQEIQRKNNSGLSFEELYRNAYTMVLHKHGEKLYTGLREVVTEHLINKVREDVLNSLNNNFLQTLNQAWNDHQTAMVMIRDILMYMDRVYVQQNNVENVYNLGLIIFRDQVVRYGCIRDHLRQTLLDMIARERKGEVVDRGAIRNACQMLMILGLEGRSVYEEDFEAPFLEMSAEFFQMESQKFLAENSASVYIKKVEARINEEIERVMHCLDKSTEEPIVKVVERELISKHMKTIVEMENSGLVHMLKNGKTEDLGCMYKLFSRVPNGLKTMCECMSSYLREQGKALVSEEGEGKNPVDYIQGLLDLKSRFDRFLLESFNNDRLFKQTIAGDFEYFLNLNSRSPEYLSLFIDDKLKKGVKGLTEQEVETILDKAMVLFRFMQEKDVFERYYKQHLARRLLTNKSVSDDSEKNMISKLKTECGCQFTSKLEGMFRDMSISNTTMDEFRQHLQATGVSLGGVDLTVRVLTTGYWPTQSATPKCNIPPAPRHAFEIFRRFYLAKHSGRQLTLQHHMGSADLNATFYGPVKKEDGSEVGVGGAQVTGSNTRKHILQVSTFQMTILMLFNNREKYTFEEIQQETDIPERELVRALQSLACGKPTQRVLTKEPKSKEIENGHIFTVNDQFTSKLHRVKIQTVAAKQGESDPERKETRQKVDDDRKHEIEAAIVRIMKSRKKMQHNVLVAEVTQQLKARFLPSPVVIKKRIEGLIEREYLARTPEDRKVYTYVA
T2 sequence (P62877 whole entry, stated change not applied, chain 2 of 2, the tested form may be a part): as the sequence (P62877 whole entry, chain 2 of 2) above

B1: KLHL22 (full length, N-terminal His6) (natural protein, human, UniProt Q53GT1 1-634, looked up)
chain: MAEEQEFTQLCKLPAQPSHPHCVNNTYRSAQHSQALLRGLLALRDSGILFDVVLVVEGRHIEAHRILLAASCDYFRGMFAGGLKEMEQEEVLIHGVSYNAMCQILHFIYTSELELSLSNVQETLVAACQLQIPEIIHFCCDFLMSWVDEENILDVYRLAELFDLSRLTEQLDTYILKNFVAFSRTDKYRQLPLEKVYSLLSSNRLEVSCETEVYEGALLYHYSLEQVQADQISLHEPPKLLETVRFPLMEAEVLQRLHDKLDPSPLRDTVASALMYHRNESLQPSLQSPQTELRSDFQCVVGFGGIHSTPSTVLSDQAKYLNPLLGEWKHFTASLAPRMSNQGIAVLNNFVYLIGGDNNVQGFRAESRCWRYDPRHNRWFQIQSLQQEHADLSVCVVGRYIYAVAGRDYHNDLNAVERYDPATNSWAYVAPLKREVYAHAGATLEGKMYITCGRRGEDYLKETHCYDPGSNTWHTLADGPVRRAWHGMATLLNKLYVIGGSNNDAGYRRDVHQVACYSCTSGQWSSVCPLPAGHGEPGIAVLDNRIYVLGGRSHNRGSRTGYVHIYDVEKDCWEEGPQLDNSISGLAACVLTLPRSLLLEPPRGTPDRSQADPDFASEVMSVSDWEEFDNSSED
notes: Kelch-like protein 22 (KLHL22), human, full length; Dimer in the cryo-EM structure of CRL3^KLHL22; also called His6-KLHL22
On to B1, for which the binding result in series [1] is on record as “binds”.

B2: KLHL12^1–161 (domain or fragment, human, UniProt Q53G59 1-161, looked up)
chain: MGGIMAPKDIMTNTHAKSILNSMNSLRKSNTLCDVTLRVEQKDFPAHRIVLAACSDYFCAMFTSELSEKGKPYVDIQGLTASTMEILLDFVYTETVHVTVENVQELLPAACLLQLKGVKQACCEFLESQLDPSNCLGIRDFAETHNCVDLMQAAEVFSQKH
notes: TEV site ENLYFQG: a residue of the site may be left at the N-terminus after cleavage; source: E. coli BL21(DE3), purified (Ni-IDA, SEC), His-MBP tag removed with TEV protease; not shown: His6, N-terminal, cleaved; MBP, N-terminal, cleaved
For B2, the “stoichiometry N” value in series [2] was found to be 2. Moreover, the binding result with CUL3^Δ1–13-RBX1 [3], in the series with CUL3^Δ1–24-RBX1 [4] and in the series with CUL3^WT-RBX1 [5] was “binds” throughout.

B3: KLHL22^1–178 (domain or fragment, human, UniProt Q53GT1 1-178, looked up)
chain: MAEEQEFTQLCKLPAQPSHPHCVNNTYRSAQHSQALLRGLLALRDSGILFDVVLVVEGRHIEAHRILLAASCDYFRGMFAGGLKEMEQEEVLIHGVSYNAMCQILHFIYTSELELSLSNVQETLVAACQLQIPEIIHFCCDFLMSWVDEENILDVYRLAELFDLSRLTEQLDTYILKN
notes: as for B2
With B3, in series [2], the “stoichiometry N” value worked out at 2. The Kd with CUL3^Δ1–13-RBX1 [6] was about 87 nM; with CUL3^Δ1–24-RBX1 [7], about 383 nM; with CUL3^WT-RBX1 [8], about 27 nM.

Usually stoichiometry N stands for a count of units in the complex or per binding partner. The Kd is the equilibrium constant for the complex coming apart. A high value points to a looser complex.
